Assay [1] addresses T1, human amylin 3 receptor (human, UniProt P30988 25-474; O60896 24-148).
T1 sequence (looked up) 1: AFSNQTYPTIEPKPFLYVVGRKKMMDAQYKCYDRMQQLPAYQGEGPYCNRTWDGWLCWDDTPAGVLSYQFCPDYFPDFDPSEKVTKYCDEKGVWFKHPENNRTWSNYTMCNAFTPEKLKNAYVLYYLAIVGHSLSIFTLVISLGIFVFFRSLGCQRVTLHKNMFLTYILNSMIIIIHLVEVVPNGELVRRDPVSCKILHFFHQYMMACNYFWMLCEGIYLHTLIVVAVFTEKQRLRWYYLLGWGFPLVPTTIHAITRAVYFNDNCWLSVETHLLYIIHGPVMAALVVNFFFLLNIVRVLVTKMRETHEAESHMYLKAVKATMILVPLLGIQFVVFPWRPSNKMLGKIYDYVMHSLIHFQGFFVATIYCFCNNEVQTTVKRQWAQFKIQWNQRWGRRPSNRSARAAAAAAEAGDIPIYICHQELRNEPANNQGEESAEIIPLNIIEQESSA
T1 sequence (looked up) 2: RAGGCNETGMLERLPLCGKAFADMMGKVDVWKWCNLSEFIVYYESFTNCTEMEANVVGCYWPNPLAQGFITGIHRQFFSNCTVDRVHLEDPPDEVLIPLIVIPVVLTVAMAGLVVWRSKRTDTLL
Briefly: cell-based or functional assay.

Assay [2] has as its target T2, human calcitonin receptor (human, UniProt P30988 25-474).
T2 sequence (looked up): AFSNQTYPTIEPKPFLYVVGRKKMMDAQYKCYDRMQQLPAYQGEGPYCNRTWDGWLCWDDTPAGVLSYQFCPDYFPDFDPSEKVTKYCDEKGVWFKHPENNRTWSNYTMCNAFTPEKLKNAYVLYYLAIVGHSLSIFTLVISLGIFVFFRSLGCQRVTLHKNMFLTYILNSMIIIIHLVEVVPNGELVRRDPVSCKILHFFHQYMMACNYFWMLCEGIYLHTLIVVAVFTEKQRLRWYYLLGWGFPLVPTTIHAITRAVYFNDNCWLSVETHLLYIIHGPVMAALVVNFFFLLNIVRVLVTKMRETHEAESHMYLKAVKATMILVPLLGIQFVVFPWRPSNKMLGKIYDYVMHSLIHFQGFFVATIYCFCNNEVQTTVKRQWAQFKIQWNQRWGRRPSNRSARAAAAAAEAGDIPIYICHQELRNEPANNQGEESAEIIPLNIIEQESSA
Briefly: cell-based or functional assay.

Starred links: 1 amine or outer side, 2 acyl side, 3 side chain; linkers in the order of their positions; H or OH if unused. Positions of bridges follow the written chain, without caps; N, C: chain ends. Groups on a side chain read outwards from the residue. No end group written: not given here. *: point of attachment. C17 diacid = O=C(O)CCCCCCCCCCCCCCCC(=O)*; C16 diacid = O=C(O)CCCCCCCCCCCCCCC(=O)*; γGlu = O=C(O)[C@H](CCC(=O)[*:2])N[*:1]

B1: Compound A88 (peptide)
peptide: SCNTSTCATQRLANEK([γGlu-C16 diacid])HKSSNNFGPILPPTKVGSETY-NH2
modifications: disulfide 2-7; N-terminus assumed
SMILES: CC[C@H](C)[C@H](NC(=O)[C@@H]1CCCN1C(=O)CNC(=O)[C@H](Cc1ccccc1)NC(=O)[C@H](CC(N)=O)NC(=O)[C@H](CC(N)=O)NC(=O)[C@H](CO)NC(=O)[C@H](CO)NC(=O)[C@H](CCCCN)NC(=O)[C@H](Cc1c[nH]cn1)NC(=O)[C@H](CCCCNC(=O)CC[C@H](NC(=O)CCCCCCCCCCCCCCC(=O)O)C(=O)O)NC(=O)[C@H](CCC(=O)O)NC(=O)[C@H](CC(N)=O)NC(=O)[C@H](C)NC(=O)[C@H](CC(C)C)NC(=O)[C@H](CCCNC(=N)N)NC(=O)[C@H](CCC(N)=O)NC(=O)[C@@H](NC(=O)[C@H](C)NC(=O)[C@@H]1CSSC[C@H](NC(=O)[C@@H](N)CO)C(=O)N[C@@H](CC(N)=O)C(=O)N[C@@H]([C@@H](C)O)C(=O)N[C@@H](CO)C(=O)N[C@@H]([C@@H](C)O)C(=O)N1)[C@@H](C)O)C(=O)N[C@@H](CC(C)C)C(=O)N1CCC[C@H]1C(=O)N1CCC[C@H]1C(=O)N[C@H](C(=O)N[C@@H](CCCCN)C(=O)N[C@H](C(=O)NCC(=O)N[C@@H](CO)C(=O)N[C@@H](CCC(=O)O)C(=O)N[C@H](C(=O)N[C@@H](Cc1ccc(O)cc1)C(N)=O)[C@@H](C)O)C(C)C)[C@@H](C)O
Regarding B1, in assay [1], the “pEC50 (cAMP accumulation), 0% HSA” value was 10.8 pEC50; the “pEC50 (cAMP accumulation), 0.1% HSA” value is 10.1 pEC50; the “pEC50 (cAMP accumulation), 4% HSA” value came out at 8.7 pEC50. Moreover, in assay [2], the “pEC50 (cAMP accumulation), 0% HSA” value was 9.8 pEC50; the “pEC50 (cAMP accumulation), 0.1% HSA” value was 9 pEC50; the “pEC50 (cAMP accumulation), 4% HSA” value was determined as 7.8 pEC50.

B2: Compound A80 (peptide)
peptide: SCNTSTCATQRLANEK([γGlu-C17 diacid])HKSSNNFGPILPPTKVGSETY-NH2
modifications: disulfide 2-7; N-terminus assumed
SMILES: CC[C@H](C)[C@H](NC(=O)[C@@H]1CCCN1C(=O)CNC(=O)[C@H](Cc1ccccc1)NC(=O)[C@H](CC(N)=O)NC(=O)[C@H](CC(N)=O)NC(=O)[C@H](CO)NC(=O)[C@H](CO)NC(=O)[C@H](CCCCN)NC(=O)[C@H](Cc1c[nH]cn1)NC(=O)[C@H](CCCCNC(=O)CC[C@H](NC(=O)CCCCCCCCCCCCCCCC(=O)O)C(=O)O)NC(=O)[C@H](CCC(=O)O)NC(=O)[C@H](CC(N)=O)NC(=O)[C@H](C)NC(=O)[C@H](CC(C)C)NC(=O)[C@H](CCCNC(=N)N)NC(=O)[C@H](CCC(N)=O)NC(=O)[C@@H](NC(=O)[C@H](C)NC(=O)[C@@H]1CSSC[C@H](NC(=O)[C@@H](N)CO)C(=O)N[C@@H](CC(N)=O)C(=O)N[C@@H]([C@@H](C)O)C(=O)N[C@@H](CO)C(=O)N[C@@H]([C@@H](C)O)C(=O)N1)[C@@H](C)O)C(=O)N[C@@H](CC(C)C)C(=O)N1CCC[C@H]1C(=O)N1CCC[C@H]1C(=O)N[C@H](C(=O)N[C@@H](CCCCN)C(=O)N[C@H](C(=O)NCC(=O)N[C@@H](CO)C(=O)N[C@@H](CCC(=O)O)C(=O)N[C@H](C(=O)N[C@@H](Cc1ccc(O)cc1)C(N)=O)[C@@H](C)O)C(C)C)[C@@H](C)O
As for B2, in assay [1], the “pEC50 (cAMP accumulation), 0% HSA” value amounted to 11.3 pEC50; the “pEC50 (cAMP accumulation), 0.1% HSA” value is 10.4 pEC50; the “pEC50 (cAMP accumulation), 4% HSA” value came to 8.7 pEC50. Moreover, in assay [2], the “pEC50 (cAMP accumulation), 0% HSA” value was 10.2 pEC50; the “pEC50 (cAMP accumulation), 0.1% HSA” value came to 9.2 pEC50; the “pEC50 (cAMP accumulation), 4% HSA” value stood at 7.7 pEC50.

(Values after patent publication US20200115430A1 (I2O THERAPEUTICS, published 2020).)
